One substance from patent US12344663B2, “Anti-C3 antibodies and antigen-binding fragments thereof and their uses for treating eye or ocular diseases” (CDR-Life AG, priority 2021, dated 2025) can be followed below.

This series is described as follows: In vitro BrM permeation assay, Ussing chamber. The series is classed as in vitro ADME, porcine. The following applies: 0.1 mg/ml, up to 72 h, in words. The method, then:
Porcine Bruch's membrane samples are used for this measurement. Porcine eyes are collected from the slaughterhouse) no more than 6 hours after the animals were sacrificed and stored at 4° C. until use (on same day).
Preparation of enriched Bruch's Membrane (BrM): The eyes are placed into a disposable petri-dish and any residual tissue surrounding the eyeball is removed. The eyeball is incised next to the iris with a scalpel and the front part of the eye as well as lens, vitreous and retinal tissue are removed from the eyecup. […]
Sampling and membrane integrity analysis: For sampling at different timepoints (4 h, 24 h, 48 h and 72 h) the solution in the single compartments is mixed by carefully pipetting up and down and 90 μl were transferred separately from each sample and diffusate chamber to collection tubes. […] Accumulation of blue particles in the second compartment is observed and camera pictures are recorded to control for overall membrane integrity.
Sample analysis: 15 μl of each solution from the sample and diffusate chambers are effectively loaded on 2 precast polyacrylamide gels (NuPAGE Bis-Tris gels) together with a similar amount of stored mastermix as loading control. The first gel is analyzed by standard SDS-PAGE and Coomassie-based staining methods for protein detection (anti-C3 scFv). […]
Evaluation: Pictures of the SDS-gels are analyzed using ImageJ2 software (Fiji). […]

As to “Gly-I-[CV-Trp(Me)-QDWGAHRC]-T-NH2 [Compound A2]”, the “Diffusion/penetration through porcine Bruch's membrane” value is recorded as “No penetration”.
